{"source": "paper PMC2685004", "about": "“Recruitment of a SAP18-HDAC1 Complex into HIV-1 Virions and Its Requirement for Viral Replication” (PLoS Pathogens, 2009)", "binders": {"B1": {"name": "GST-SAP18 (natural protein, UniProt O00422 1-153, looked up)", "chain": "MAVESRVTQEEIKKEPEKPIDREKTCPLLLRVFTTNNGRHHRMDEFSRGNVPSSELQIYTWMDATLKELTSLVKEVYPEARKKGTHFNFAIVFTDVKRPGYRVKEIGSTMSGRKGTDDSMTLQSQKFQIGDYLDIAITPPNRAPPPSGRMRPY", "notes": "also called GST (glutathione-S-transferase)-SAP18; pGEX-SAP18"}}, "key": {"[1]": {"target": "T1, 6H(hexa-histidine)-INI1/hSNF5 (human, UniProt Q12824 1-385)", "T1 construct": "also called His-INI1; source: Ni-NTA and hydroxylapatite purified", "T1 sequence (Q12824 whole entry)": "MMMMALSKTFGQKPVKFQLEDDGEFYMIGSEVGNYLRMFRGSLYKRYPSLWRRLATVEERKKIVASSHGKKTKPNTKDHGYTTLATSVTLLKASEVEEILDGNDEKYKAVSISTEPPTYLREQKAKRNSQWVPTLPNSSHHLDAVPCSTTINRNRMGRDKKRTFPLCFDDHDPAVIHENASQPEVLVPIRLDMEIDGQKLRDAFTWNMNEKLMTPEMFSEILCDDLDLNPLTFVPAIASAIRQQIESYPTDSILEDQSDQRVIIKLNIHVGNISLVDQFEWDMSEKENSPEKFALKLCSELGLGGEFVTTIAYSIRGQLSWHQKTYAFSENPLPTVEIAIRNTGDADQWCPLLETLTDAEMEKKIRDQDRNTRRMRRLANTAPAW", "assay": "pull-down; glutathione sepharose beads with GST-SAP18 incubated with purified IN and INI1 together; Western blot", "settings": "both partners purified"}, "[2]": {"target": "T1, 6H(hexa-histidine)-INI1/hSNF5", "assay": "pull-down; glutathione sepharose 4B beads with 5 µg GST or GST-SAP18, incubated with 2 µg His-IN or His-INI1, one at a time; 20 mM HEPES-KOH pH 6.8, 200 mM NaCl, 0.1 mM EDTA, 2-5 mM DTT, 0.1% IGEPAL, 100 µg/ml ethidium bromide, 10 U DNaseI; Western blot", "settings": "both partners purified"}}, "data": [{"binder": "B1", "values": [{"measurement": "binding result", "setting": "[1]", "result": "binds"}, {"measurement": "binding result", "setting": "[2]", "result": "binds"}]}]}
